# Results published in the Immune Epitope Database (IEDB).
# pIC50, pKd: −log10 of the molar value.
# Tests used:
# HLA-B*08:01 = test: IEDB peptide-MHC binding, purified MHC/direct/fluorescence; filed as Kd, often an IC50 or EC50 that approximates it; ≥ and ≤ were set here for values at or beyond the usual limits of such assays; settings: source organism: Bacillus anthracis str. Sterne
# HLA-C*15:02 = test: as above
# HLA-B*08:02 = test: as above; settings: source organism: Bacillus anthracis str. Sterne
# HLA-C*14:02 = test: as above
# HLA-C*06:02 = test: as above
# HLA-B*27:20 = test: IEDB peptide-MHC binding, purified MHC/competitive/fluorescence; filed as Kd, often an IC50 or EC50 that approximates it; ≥ and ≤ were set here for values at or beyond the usual limits of such assays
# HLA-B*45:06 = test: as above
# HLA-B*15:42 = test: as above
# HLA-B*83:01 = test: as above
# HLA-A*01:01 [1] = test: IEDB peptide-MHC binding, purified MHC/competitive/fluorescence; ≥ and ≤ were set here for values at or beyond the usual limits of such assays
# HLA-A*32:15 = test: IEDB peptide-MHC binding, purified MHC/competitive/fluorescence; filed as Kd, often an IC50 or EC50 that approximates it; ≥ and ≤ were set here for values at or beyond the usual limits of such assays; settings: source organism: Toxoplasma gondii
# HLA-A*68:23 = test: as above; settings: source organism: Toxoplasma gondii
# HLA-A*03:01 = test: as above; settings: source organism: Toxoplasma gondii
# HLA-C*12:03 = test: IEDB peptide-MHC binding, purified MHC/direct/fluorescence; filed as Kd, often an IC50 or EC50 that approximates it; ≥ and ≤ were set here for values at or beyond the usual limits of such assays
# HLA-B*48:01 = test: IEDB peptide-MHC binding, purified MHC/competitive/fluorescence; filed as Kd, often an IC50 or EC50 that approximates it; ≥ and ≤ were set here for values at or beyond the usual limits of such assays
# HLA-A*80:01 = test: IEDB peptide-MHC binding, purified MHC/direct/fluorescence; filed as Kd, often an IC50 or EC50 that approximates it; ≥ and ≤ were set here for values at or beyond the usual limits of such assays
# HLA-A*01:01 [2] = test: as above
# HLA-B*07:02 [3] = test: IEDB peptide-MHC binding, purified MHC/competitive/fluorescence; filed as Kd, often an IC50 or EC50 that approximates it; ≥ and ≤ were set here for values at or beyond the usual limits of such assays
# HLA-A*26:03 = test: IEDB peptide-MHC binding, purified MHC/direct/fluorescence; filed as Kd, often an IC50 or EC50 that approximates it; ≥ and ≤ were set here for values at or beyond the usual limits of such assays; settings: source organism: Cryptosporidium parvum Iowa II
# HLA-B*07:02 [4] = test: IEDB peptide-MHC binding, purified MHC/competitive/fluorescence; ≥ and ≤ were set here for values at or beyond the usual limits of such assays
# HLA-B*40:01 = test: IEDB peptide-MHC binding, purified MHC/direct/fluorescence; filed as Kd, often an IC50 or EC50 that approximates it; ≥ and ≤ were set here for values at or beyond the usual limits of such assays; settings: source organism: Homo sapiens
# HLA-B*27:05 = test: as above; settings: source organism: Homo sapiens
# HLA-B*57:01 = test: IEDB peptide-MHC binding, purified MHC/competitive/radioactivity; filed as Kd, often an IC50 or EC50 that approximates it; ≥ and ≤ were set here for values at or beyond the usual limits of such assays; settings: source organism: Dengue virus 1 Brazil/97-11/1997
# HLA-C*08:02 = test: IEDB peptide-MHC binding, purified MHC/direct/fluorescence; filed as Kd, often an IC50 or EC50 that approximates it; ≥ and ≤ were set here for values at or beyond the usual limits of such assays
# HLA-C*03:03 = test: as above
# HLA-C*07:02 = test: as above; settings: source organism: Mycobacterium tuberculosis str. Haarlem
# HLA-A*26:02 = test: as above; settings: source organism: Geobacillus sp. WCH70
# HLA-A*02:11 = test: as above; settings: source organism: dengue virus type 1
# HLA-A*02:19 = test: as above; settings: source organism: dengue virus type 1
# HLA-A*02:12 = test: as above; settings: source organism: dengue virus type 1
# HLA-A*02:03 = test: IEDB peptide-MHC binding, purified MHC/competitive/radioactivity; filed as Kd, often an IC50 or EC50 that approximates it; ≥ and ≤ were set here for values at or beyond the usual limits of such assays; settings: source organism: Dengue virus 1 Brazil/97-11/1997
# HLA-A*02:17 = test: as above; settings: source organism: Dengue virus 1 Singapore/S275/1990
# HLA-A*24:02 = test: as above; settings: source organism: Dengue virus 1 Brazil/97-11/1997
# HLA-B*15:01 = test: IEDB peptide-MHC binding, purified MHC/competitive/fluorescence; filed as Kd, often an IC50 or EC50 that approximates it; ≥ and ≤ were set here for values at or beyond the usual limits of such assays; settings: source organism: Shigella flexneri 2a str. 301
# HLA-B*35:01 = test: as above; settings: source organism: Shigella flexneri 2a str. 301
# [5] = source organism: Bacillus anthracis str. A2012
# [6] = source organism: Toxoplasma gondii
# [7] = source organism: Listeria monocytogenes EGD-e
# [8] = source organism: West Nile virus
# [9] = source organism: Vibrio parahaemolyticus
# [10] = source organism: Zaire ebolavirus
# [11] = source organism: Pan troglodytes
# [12] = source organism: dengue virus type 1
# [13] = source organism: Mycobacterium tuberculosis str. Haarlem
# [14] = source organism: Cryptosporidium parvum Iowa II
sequence,measurement,setting,value
YMKERFTVL,pKd,HLA-B*08:01,7.82
same,pKd,HLA-C*15:02; [5],5.82
same,pKd,HLA-B*08:02,6.55
same,pKd,HLA-C*14:02; [5],6.76
same,pKd,HLA-C*06:02; [5],6.83
same,pKd,HLA-B*27:20; [5],7.65
same,pKd,HLA-B*45:06; [5],≤ 5.30
same,pKd,HLA-B*15:42; [5],≤ 5.30
same,pKd,HLA-B*83:01; [5],≤ 5.30
RGDLETLGY,pIC50,HLA-A*01:01 [1]; source organism: Vaccinia virus WR,5.03
MTMLIKAFK,pKd,HLA-A*32:15,6.71
same,pKd,HLA-A*68:23,8.35
same,pKd,HLA-A*03:01,8.11
same,pKd,HLA-B*45:06; [6],≤ 5.30
same,pKd,HLA-B*15:42; [6],≤ 5.30
same,pKd,HLA-B*83:01; [6],≤ 5.30
RMMGKTNPL,pKd,HLA-C*15:02; [7],7.80
same,pKd,HLA-C*12:03; [7],6.81
same,pKd,HLA-C*14:02; [7],≥ 9.00
same,pKd,HLA-C*06:02; [7],≤ 4.70
same,pKd,HLA-B*48:01; [7],7.01
MSPHRVPNY,pKd,HLA-A*80:01; [8],≤ 4.70
same,pKd,HLA-A*01:01 [2]; [8],≤ 4.70
MPRQKIIGPL,pKd,HLA-B*07:02 [3]; source organism: Influenza A virus (A/Swine/Colorado/23619/99(H3N2)),8.18
ETRYSWAIL,pKd,HLA-A*26:03,6.34
MTPGRGLSK,pKd,HLA-A*80:01; [9],≤ 4.70
same,pKd,HLA-A*01:01 [2]; [9],≤ 4.70
APDGIRGFP,pIC50,HLA-B*07:02 [4]; [10],4.63
RRHWGGNVL,pKd,HLA-B*40:01,≤ 4.37
same,pKd,HLA-B*27:05,5.64
same,pKd,HLA-B*27:20; [11],9.70
same,pKd,HLA-B*45:06; [11],≤ 5.30
same,pKd,HLA-B*15:42; [11],≤ 5.30
same,pKd,HLA-B*83:01; [11],≤ 5.30
ESDPEGALW,pKd,HLA-A*80:01; [12],≤ 4.70
same,pKd,HLA-B*57:01,6.41
TSDGKEYTY,pIC50,HLA-A*01:01 [1]; [10],5.46
YVYPDNLPV,pKd,HLA-C*08:02; [13],7.11
same,pKd,HLA-C*03:03; [13],8.70
same,pKd,HLA-C*07:02,5.66
FTWPWMKLF,pKd,HLA-A*26:02,6.33
YMPSVVETL,pKd,HLA-A*02:11,≥ 9.00
same,pKd,HLA-A*02:19,7.44
same,pKd,HLA-C*08:02; [12],≤ 4.70
same,pKd,HLA-A*02:12,8.05
same,pKd,HLA-A*02:03,7.82
same,pKd,HLA-A*02:17,7.84
same,pKd,HLA-A*24:02,6.00
KPVGWAMSF,pKd,HLA-B*07:02 [3]; source organism: Shigella flexneri 2a str. 301,7.92
same,pKd,HLA-B*15:01,5.40
same,pKd,HLA-B*35:01,9.40
WMYNIQPYL,pKd,HLA-C*03:03; [14],7.08
same,pKd,HLA-C*12:03; [14],6.34
same,pKd,HLA-B*48:01; [14],7.46
PDDGSYGEY,pIC50,HLA-A*01:01 [1]; [10],≤ 3.56
GPCPGDYAF,pIC50,HLA-B*07:02 [4]; source organism: Sudan ebolavirus,≤ 3.14
